Laboratory results from patent publication US10301358B2, “Collagen imaging compositions” (Collagen Medical, LLC, priority 2015, dated 2019).
Entries after “also recorded” stand apart in the source; their conditions may differ. Bridge positions count the residues as written; N and C are the ends. Ends that are not written are not given here.

Experiments:
[1] = biological target: T1, collagen (Rattus norvegicus, UniProt P02454+P02466); experiment: Uptake into fibrotic myocardial tissue, rat model of healed myocardial infarction; type: in vivo, Sprague Dawley rats; conditions: ~1 umol/kg, 3 weeks following infarction, sacrifice 60 minutes post-injection, tissue manganese
T1 construct: from tissue; host or cells: rat heart (normal and infarcted myocardium), in vivo
T1 sequence (P02454 152-1207): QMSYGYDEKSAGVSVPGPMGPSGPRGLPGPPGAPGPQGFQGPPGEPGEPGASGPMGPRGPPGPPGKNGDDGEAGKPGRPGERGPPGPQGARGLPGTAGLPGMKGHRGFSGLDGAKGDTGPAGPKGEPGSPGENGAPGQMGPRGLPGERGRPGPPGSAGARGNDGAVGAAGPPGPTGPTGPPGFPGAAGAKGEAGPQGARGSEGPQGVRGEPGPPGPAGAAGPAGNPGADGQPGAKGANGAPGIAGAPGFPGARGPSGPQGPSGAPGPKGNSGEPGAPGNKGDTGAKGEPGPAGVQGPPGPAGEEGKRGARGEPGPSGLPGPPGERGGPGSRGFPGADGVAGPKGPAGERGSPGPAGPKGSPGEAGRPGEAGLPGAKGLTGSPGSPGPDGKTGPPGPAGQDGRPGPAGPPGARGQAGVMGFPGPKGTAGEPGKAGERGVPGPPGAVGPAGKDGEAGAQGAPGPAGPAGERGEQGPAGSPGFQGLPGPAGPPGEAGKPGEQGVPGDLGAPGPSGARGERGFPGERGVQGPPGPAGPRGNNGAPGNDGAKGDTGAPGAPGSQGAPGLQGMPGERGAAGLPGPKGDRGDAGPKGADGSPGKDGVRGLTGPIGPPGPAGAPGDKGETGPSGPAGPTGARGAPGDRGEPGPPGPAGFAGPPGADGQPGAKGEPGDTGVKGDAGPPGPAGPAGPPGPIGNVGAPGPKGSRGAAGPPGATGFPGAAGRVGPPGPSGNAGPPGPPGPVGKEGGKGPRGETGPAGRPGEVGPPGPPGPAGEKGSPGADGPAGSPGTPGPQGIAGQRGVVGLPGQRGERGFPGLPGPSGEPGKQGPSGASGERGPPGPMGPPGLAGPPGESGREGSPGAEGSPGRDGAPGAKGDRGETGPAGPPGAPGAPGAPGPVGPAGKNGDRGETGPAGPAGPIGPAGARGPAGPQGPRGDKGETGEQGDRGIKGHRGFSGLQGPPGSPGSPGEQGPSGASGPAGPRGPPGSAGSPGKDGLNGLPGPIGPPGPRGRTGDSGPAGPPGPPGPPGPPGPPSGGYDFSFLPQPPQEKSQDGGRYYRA
T1 sequence (P02466 86-1125): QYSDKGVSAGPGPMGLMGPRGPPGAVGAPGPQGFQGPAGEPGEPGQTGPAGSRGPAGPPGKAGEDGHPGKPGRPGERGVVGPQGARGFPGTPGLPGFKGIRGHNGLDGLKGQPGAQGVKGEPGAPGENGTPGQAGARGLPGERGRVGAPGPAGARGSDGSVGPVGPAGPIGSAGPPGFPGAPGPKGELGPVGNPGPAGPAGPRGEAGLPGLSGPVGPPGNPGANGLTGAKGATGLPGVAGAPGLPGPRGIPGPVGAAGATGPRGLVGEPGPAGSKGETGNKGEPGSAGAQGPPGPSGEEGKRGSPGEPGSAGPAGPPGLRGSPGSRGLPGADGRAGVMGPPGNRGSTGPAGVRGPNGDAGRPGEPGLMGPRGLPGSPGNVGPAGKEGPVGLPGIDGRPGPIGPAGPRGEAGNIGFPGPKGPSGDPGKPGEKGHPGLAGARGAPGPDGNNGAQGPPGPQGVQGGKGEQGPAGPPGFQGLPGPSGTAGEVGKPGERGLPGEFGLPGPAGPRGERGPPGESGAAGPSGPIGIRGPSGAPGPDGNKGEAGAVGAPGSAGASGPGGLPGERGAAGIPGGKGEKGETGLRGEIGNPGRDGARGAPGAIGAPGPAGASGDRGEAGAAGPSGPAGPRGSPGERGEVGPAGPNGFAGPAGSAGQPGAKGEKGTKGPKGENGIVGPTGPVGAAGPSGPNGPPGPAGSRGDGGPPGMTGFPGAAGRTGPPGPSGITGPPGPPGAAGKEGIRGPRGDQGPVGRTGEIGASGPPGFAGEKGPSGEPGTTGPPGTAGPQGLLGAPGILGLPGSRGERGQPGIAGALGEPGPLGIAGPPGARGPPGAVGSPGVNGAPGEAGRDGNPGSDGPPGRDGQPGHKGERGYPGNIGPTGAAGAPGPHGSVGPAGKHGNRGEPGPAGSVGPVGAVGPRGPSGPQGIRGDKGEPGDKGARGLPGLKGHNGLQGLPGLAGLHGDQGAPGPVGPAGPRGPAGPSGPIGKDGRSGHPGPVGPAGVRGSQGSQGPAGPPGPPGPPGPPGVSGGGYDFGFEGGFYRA
Experimental: Tissue samples from normal myocardium and infarcted myocardium are analyzed for manganese and hydroxyproline (collagen) content.

[2] = Myocardial perfusion imaging, canine LAD occlusion/reperfusion model; type: in vivo
Experimental: To mimic severe ischemia, a canine model is used in which an inflatable variable vascular occluder is placed around the left anterior descending coronary artery (LAD) to allow occlusion and reperfusion. Imaging is performed on a 3T clinical scanner 4 days after implantation of the occluder. The conventional saturation recovery pulse sequence for stress perfusion imaging is compared with a segmented inversion method. The purpose of the segmented inversion method is to leverage the steady-state properties of Compound ID No. 1. This segmented inversion recovery pulse sequence provides greater T1 weighting, higher spatial resolution, and greater myocardial tissue contrast. Additionally, since imaging is delayed, the entire heart can be imaged. After baseline MRI scanning, the balloon is inflated. […]
To assess relative perfusion, labeled microspheres are administered at 3 timepoints in the study. […] At autopsy under ultraviolet light, the hypo-perfused myocardium is differentiated from normal myocardium due to the lack of fluorescence in the hypo-perfused tissue. Based on the fluorescence, a sample of the ischemic territory and a sample of the remote myocardium are taken for ex vivo analysis. These tissue samples are weighed, digested in nitric acid, and analyzed for the elements La, Au, Lu (the three microsphere injections) and manganese (Compound ID No. 1) using ICP-MS. […]

[3] = Uptake into fibrotic liver tissue, bile duct ligated (BDL) rats; type: in vivo, Sprague-Dawley rats; conditions: ~7.5 μmol/kg, sacrifice after 90 min, BDL vs sham
Experimental: Bile duct ligated (BDL) rats are selected to assess the uptake of the complexes in fibrotic liver tissue as compared to sham operated animals. In this model, the common bile duct is surgically tied off and the resultant cholestasis results in fibrosis around the bile ducts. Laparotomy is performed in Sprague-Dawley rats with double ligation of the common bile duct with a section between the two ligatures (2-3% isoflurane anesthesia). […] Fibrosis is evident 15 days after ligation and increases with time up to 30 days after ligation, providing defined endpoints for imaging of moderate and severe fibrosis.
Studies are conducted by injecting Compound ID. No. 1 at a dose ˜7.5 μmol/kg. After 90 min, the animals are sacrificed and the 4 liver lobes and abdominal muscle are removed and the manganese concentration quantified by ICP-MS and collagen content quantified using hydroxyproline concentration.

[4] = Pharmacokinetics (Rat); type: in vivo, Sprague Dawley rats; conditions: 1.3 umol/kg bolus IV, plasma sampled 2-90 minutes post-injection, ICP-MS
Experimental: Compound ID No. 1 is formulated at pH 7.5 (TRIS buffer) and administered to Sprague Dawley rats (n=2) at dose of 1.3 umol/kg using a bolus IV injection. Plasma is sampled at 2, 5, 15, 30, and 90 minutes post-injection and analyzed for manganese content using ICP-MS.

Row | Substance | uptake in normal vs. scarred myocardium [1] | MR visualization of myocardial perfusion defect ([2]; 7.5 μmol/kg i.v. bolus one minute after coronary artery occlusion, 3T scanner, listed as 1) | Mn concentration in ischemic vs normal myocardium ex vivo ([2]; 7.5 μmol/kg i.v., sacrifice ca. 120 minutes post injection, ICP-MS) | uptake into fibrotic liver tissue (manganese vs hydroxyproline) [3] | pharmacokinetic profile (plasma manganese content) [4]
1 | Compound ID No. 1: MnCDTAGA conjugate of cyclic collagen binding peptide SEQ ID No. 1 (G-K-W-H-C-T-T-K-F-P-H-H-Y-C-L-Y-Bip), amidated C-terminus; FIG. 1 (GKWHCTTKFPHHYCLY; MnCDTAGA conjugate; cyclic disulfide; C-terminal amide) | greater binding in fibrotic cardiac tissue as compared with normal myocardial tissue | readily visualized; also recorded: positive image contrast in the normally perfused myocardium | preferential deposition in normal vs ischemic cardiac tissue | consistent with uptake of Compound ID No. 1 into fibrotic-rich liver tissue | rapid initial blood clearance
2 | Compound ID No. 2: MnCDTAGA linked to terminal nitrogen and lysine epsilon amino groups of peptide SEQ ID No. 2, C-terminus —NH2 amide; FIG. 2 (MnCDTAGA-K(MnCDTAGA)WHCTTK(MnCDTAGA)FPHHYCLY; disulfide 4-13 (inferred); not fully specified (C-terminus); printed as K-W-H-C-T-T-K-F-P-H-H-Y-C-L-Y-Bip) | greater binding in fibrotic cardiac tissue as compared with normal myocardial tissue | – | – | – | –
3 | Compound ID No. 4: MnCDTAGA linked to terminal nitrogen or lysine epsilon amino groups of peptide SEQ ID No. 4, C-terminus —NH2 amide; FIG. 4 (KWHCYTKFPHHYCVY; disulfide 4-13 (inferred); not fully specified (C-terminus); printed as K-W-H-C-Y-T-K-F-P-H-H-Y-C-V-Y-Bip; also: MnCDTAGA on N-terminal amine or lysine ε-amino group) | greater binding in fibrotic cardiac tissue as compared with normal myocardial tissue | – | – | – | –
